Source: patent publication US20180280423A1 (NATIONAL YANG MING UNIVERSITY, published 2018)

Biological target: T1, epidermal growth factor receptor (EGFR) (human, UniProt P00533 25-1210)
T1 construct: whole, on cells; Endogenous EGFR in human HNSCC cells, or wild-type pHA-EGFR where transfected; also called ErbB1; total EGFR
Experiment: interaction of transfected LTβ with EGFR (method not named; immunoprecipitation in Methods)
Protocol: For immunoprecipitation, the lysates were mixed with an equal amount of Co-IP buffer. The primary antibody or IgG was added to the lysates, and the reactions were incubated and then blocked with protein A beads overnight. The beads were collected and washed gently prior to immunoblotting. ImageJ software was used for densitometric measurements of the western blots.

B1: Ectopic LTβ (ligand)
chain: MGALGLEGRGGRLQGRGSLLLAVAGATSLVTLLLAVPITVLAVLALVPQDQGGLVTETADPGAQAQQGLGFQKLPEEEPETDLSPGLPAAHLIGAPLKGQGLGWETTKEQAFLTSGTQFSDAEGLALPQDGLYYLYCLVGYRGRAPPGGGDPQGRSVTLRSSLYRAGGAYGPGTPELLLEGAETVTPVLDPARRQGYGPLWYTSVGFGGLVQLRRGERVYVNISHPDMVDFARGKTFFGAVMVG
notes: also called pFLAG-LTB product; transfected LTβ; not shown: FLAG tag from the pFLAG-CMV2 vector
B1: binds.
